# In the supplement of paper PMC6757056:
# ± gives the standard deviation of the averaged measurements.
# B1: library; a variant is named by its letters at N, in order (parent)
# chain: GCUGUCACCGAGAAACUGUGAAGUAUAUCUUAAACCUGGGCACUUAAAAGAUAUAUGGAGUUAGUAGUGCAACCUGCUCGGUCUGAUGAGUCCNNNNNNGGACGAAACAGC
# Key:
# cyclic di-GMP [1] = variants of: B1; experiment: normalized RNA/DNA level without ligand (relative to sTRSVctl = 100) (log10 (% of sTRSVctl)); HEK293T; ligand: cyclic di-GMP (c-di-GMP-II aptamer); higher = less ribozyme self-cleavage, higher mRNA level; settings: reporter: mCherry (pCS4076), ligand present: no
# Procedure, shortened: (§1)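 Ribozyme switch library plasmids linked to reporters were introduced into HEK293T cells at 4 µg per 6-well well, with ligand, if any, added 1 h before. Total RNA was extracted with EDTA 72 h later, reverse-transcribed, amplified, barcoded and sequenced. RNA level was computed from RNA over DNA reads relative to a spiked-in non-cleaving sequence or the top sequences, then scaled and log-transformed. The top set was 25 sequences, values were ×100 and log10, and the cutoff was ≥100 DNA reads.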
# cyclic di-GMP [2] = variants of: B1; experiment: normalized RNA/DNA level with ligand (relative to sTRSVctl = 100) (log10 (% of sTRSVctl)); HEK293T; ligand: cyclic di-GMP (c-di-GMP-II aptamer); ligand concentration (+) RNA-Seq: 1 mM; higher = less ribozyme self-cleavage, higher mRNA level; settings: reporter: mCherry (pCS4076), ligand present: yes
# Procedure, shortened: as §1
Variant,normalized RNA/DNA level without ligand (log10) (cyclic di-GMP [1]),normalized RNA/DNA level with ligand (log10) (cyclic di-GMP [2])
AUACAG,1.59 ± 0.089,1.77 ± 0.04
AUACAC,1.71 ± 0.02,1.82 ± 0.081
AGUCAG,1.571 ± 0.011,1.73 ± 0.16
AGUCAC,1.67 ± 0.062,1.81 ± 0.049
AGUCAU,1.69 ± 0.071,1.85 ± 0.13
AGUCAA,1.48 ± 0.039,1.69 ± 0.1
CUACUG,1.64 ± 0.025,1.83 ± 0.078
CUACUC,1.7 ± 0.034,1.83 ± 0.069
CUACUA,1.47 ± 0.14,1.64 ± 0.072
UUACCG,1.8 ± 0.035,1.88 ± 0.11
UUACCU,1.74 ± 0.022,1.86 ± 0.069
AUACCA,1.663 ± 0.0032,1.79 ± 0.11
AUACCU,1.7 ± 0.054,1.85 ± 0.046
AUACCC,1.75 ± 0.043,1.89 ± 0.086
AGUUAU,1.67 ± 0.06,1.86 ± 0.11
AGUUAC,1.7078 ± 0.0015,1.85 ± 0.15
AGUUAA,1.52 ± 0.08,1.68 ± 0.086
UGUCCC,1.81 ± 0.072,1.88 ± 0.17
UGUCCA,1.8 ± 0.013,1.87 ± 0.068
UGUCCG,1.856 ± 0.0053,1.95 ± 0.042
UGUUAU,1.6763 ± 0.0012,1.84 ± 0.14
UGUUAA,1.693 ± 0.01,1.85 ± 0.09
UGUUAC,1.735 ± 0.0055,1.91 ± 0.14

Variant,normalized RNA/DNA level without ligand (log10) (cyclic di-GMP [1]),normalized RNA/DNA level with ligand (log10) (cyclic di-GMP [2])
UGUUAG,1.74 ± 0.03,1.86 ± 0.14
UUACUC,1.747 ± 0.0026,1.84 ± 0.093
GGUGCC,1.82 ± 0.077,1.95 ± 0.15
GGUGCA,1.78 ± 0.12,1.91 ± 0.13
AGUUUU,1.79 ± 0.033,1.89 ± 0.13
AGUUUC,1.75 ± 0.025,1.85 ± 0.13
AGUUUG,1.65 ± 0.088,1.77 ± 0.096
GGUGAC,1.75 ± 0.0083,1.86 ± 0.14
GGUGAA,1.34 ± 0.076,1.61 ± 0.07
GGUGAU,1.67 ± 0.041,1.76 ± 0.057
GGUUUU,1.7 ± 0.015,1.84 ± 0.077
GGUUUA,1.582 ± 0.0053,1.79 ± 0.099
GGUUUC,1.8 ± 0.12,1.86 ± 0.12
CUACGG,1.8 ± 0.061,1.89 ± 0.08
CUACGC,1.74 ± 0.043,1.86 ± 0.084
CUACGU,1.73 ± 0.017,1.82 ± 0.081
AGUCUG,1.629 ± 0.012,1.76 ± 0.056
AGUCUA,1.55 ± 0.016,1.77 ± 0.12
AGUCUU,1.726 ± 0.0047,1.84 ± 0.11
AGUCUC,1.764 ± 0.0076,1.88 ± 0.085
GGUCCA,1.777 ± 0.015,1.95 ± 0.022
GGUCCG,1.9 ± 0.057,1.96 ± 0.13
GGUCCC,1.83 ± 0.045,1.92 ± 0.11

Variant,normalized RNA/DNA level without ligand (log10) (cyclic di-GMP [1]),normalized RNA/DNA level with ligand (log10) (cyclic di-GMP [2])
CGUGGC,1.748 ± 0.0072,1.85 ± 0.15
CGUGGG,1.62 ± 0.058,1.8 ± 0.073
CGUGGU,1.74 ± 0.021,1.87 ± 0.076
CGUCGG,1.7 ± 0.039,1.81 ± 0.13
CGUCGC,1.76 ± 0.024,1.87 ± 0.16
CGUCGU,1.78 ± 0.061,1.9 ± 0.13
GUACCA,1.68 ± 0.044,1.81 ± 0.13
GUACCG,1.77 ± 0.037,1.84 ± 0.069
GUACCU,1.73 ± 0.029,1.83 ± 0.13
GUACCC,1.75 ± 0.058,1.88 ± 0.097
AGUCGU,1.6615 ± 0.0012,1.79 ± 0.08
AGUCGG,1.8 ± 0.051,1.87 ± 0.082
AGUCGA,1.71 ± 0.036,1.84 ± 0.081
AGUCGC,1.731 ± 0.0037,1.85 ± 0.12
UUACAA,1.639 ± 0.0043,1.82 ± 0.07
UUACAC,1.73 ± 0.034,1.84 ± 0.11
UUACAU,1.677 ± 0.014,1.82 ± 0.1
UUACAG,1.707 ± 0.0067,1.86 ± 0.14
AUAAAC,1.647 ± 0.0018,1.8 ± 0.13
AUAAAA,1.53 ± 0.056,1.67 ± 0.073
AUAAAU,1.59 ± 0.005,1.8 ± 0.11
GUAAAC,1.57 ± 0.017,1.74 ± 0.038
UUAACG,1.81 ± 0.054,1.88 ± 0.11

Variant,normalized RNA/DNA level without ligand (log10) (cyclic di-GMP [1]),normalized RNA/DNA level with ligand (log10) (cyclic di-GMP [2])
UUAACU,1.77 ± 0.02,1.87 ± 0.071
UUAACC,1.78 ± 0.073,1.85 ± 0.14
UUAACA,1.7 ± 0.019,1.8 ± 0.091
CUAACC,1.8 ± 0.038,1.84 ± 0.12
CUAACA,1.662 ± 0.0013,1.78 ± 0.09
CUAACG,1.77 ± 0.031,1.85 ± 0.15
GUACGU,1.63 ± 0.039,1.81 ± 0.063
UGUUUA,1.744 ± 0.0073,1.89 ± 0.072
UGUUUU,1.71 ± 0.032,1.86 ± 0.11
UGUUUC,1.812 ± 0.0031,1.92 ± 0.08
UGUUUG,1.77 ± 0.014,1.91 ± 0.12
UGUGAA,1.658 ± 0.012,1.85 ± 0.078
UGUGAG,1.7 ± 0.038,1.87 ± 0.07
GUACUC,1.54 ± 0.099,1.75 ± 0.041
GUACUA,1.61 ± 0.036,1.8 ± 0.065
GUACUG,1.58 ± 0.033,1.78 ± 0.081
AGUUGC,1.67 ± 0.029,1.82 ± 0.12
AGUUGG,1.63 ± 0.043,1.8 ± 0.11
AGUUGA,1.57 ± 0.04,1.75 ± 0.1
AGUUGU,1.66 ± 0.048,1.85 ± 0.11
GGUGUU,1.63 ± 0.037,1.86 ± 0.094
GGUGUC,1.66 ± 0.019,1.8 ± 0.1
GGUGUA,1.6 ± 0.14,1.76 ± 0.14

Variant,normalized RNA/DNA level without ligand (log10) (cyclic di-GMP [1]),normalized RNA/DNA level with ligand (log10) (cyclic di-GMP [2])
CGUCCC,1.75 ± 0.029,1.9 ± 0.086
CGUCCA,1.53 ± 0.11,1.72 ± 0.1
CGUCCG,1.82 ± 0.035,1.89 ± 0.069
GGUGGC,1.68 ± 0.03,1.83 ± 0.076
GGUGGA,1.55 ± 0.11,1.7 ± 0.065
UGUCAU,1.68 ± 0.049,1.81 ± 0.1
UGUCAC,1.75 ± 0.04,1.87 ± 0.15
UGUCAG,1.67 ± 0.042,1.82 ± 0.1
CGUUUG,1.71 ± 0.02,1.86 ± 0.069
CGUUUC,1.59 ± 0.025,1.78 ± 0.11
CGUCAC,1.63 ± 0.065,1.78 ± 0.062
CGUCAG,1.79 ± 0.056,1.92 ± 0.11
CGUCAU,1.46 ± 0.042,1.64 ± 0.13
GGUCUU,1.64 ± 0.039,1.79 ± 0.13
GGUCUC,1.73 ± 0.075,1.87 ± 0.12
GGUCUA,1.52 ± 0.046,1.72 ± 0.039
CUACAG,1.73 ± 0.023,1.87 ± 0.035
CUACAU,1.57 ± 0.047,1.72 ± 0.13
UGUUCG,1.8 ± 0.023,1.89 ± 0.12
UGUUCA,1.71 ± 0.066,1.81 ± 0.12
UGUUCC,1.84 ± 0.052,1.94 ± 0.14
UGUUCU,1.75 ± 0.051,1.88 ± 0.13
CGUCUG,1.727 ± 0.015,1.83 ± 0.064
